Where two headings read alike, the source gives them in different places.
Legend:
[1] = target: human LonP1 T803V mutant, amino acids 125 to 959 (human) (UniProt P36776)
[2] = target: human mitochondrial Lon protease homolog (LonP1), wild-type, amino acids 125 to 959 (human) (UniProt P36776); assay: cryo-EM structure
[3] = target: human mitochondrial Lon protease homolog (LonP1), wild-type, amino acids 125 to 959 (human) (UniProt P36776); assay: cryo-EM structure; remark: listed apart in the source

Row | ATPase activity relative to wild-type LonP1 [1] | stoichiometry N [2] | stoichiometry N [3] | Substance
1 | 50% | – | – | human LonP1 T803V mutant, amino acids 125 to 959 (from UniProt P36776 125-959) (enzyme)
2 | – | 6 | 6 | human mitochondrial Lon protease homolog (LonP1), wild-type, amino acids 125 to 959 (from UniProt P36776 125-959) (enzyme)

From paper doi:10.1101/2021.07.28.454137
